# How the values were obtained:
# [1] = tested on: cancer stem cells from breast cancer cell lines; test: Drug exposure of breast cancer stem cell clones; format: cell-based; settings: selected clones
# Protocol: Breast cancer cells are cultured in the presence of each or combinations of the anti-cancer agents 5-FU, Methothrexate, and Cytarabine. […] Cells are passaged at least 5 times in high concentrations of anti-cancer drugs. […] Breast cancer cells were subjected to rounds of exposure to 5-fluorouracil (5-FU), methotrexate, and cytarabine.
# HGFIN = target: T1, HGFIN (Homo sapiens, UniProt Q14956); test: SELDI ProteinChip (PS1) HGFIN-SP interaction; format: binding; settings: HGFIN covalently bound to PS1 chip, SP added
# T1 construct: made in house
# T1 sequence (Q14956 23-560 isoform Q14956-2): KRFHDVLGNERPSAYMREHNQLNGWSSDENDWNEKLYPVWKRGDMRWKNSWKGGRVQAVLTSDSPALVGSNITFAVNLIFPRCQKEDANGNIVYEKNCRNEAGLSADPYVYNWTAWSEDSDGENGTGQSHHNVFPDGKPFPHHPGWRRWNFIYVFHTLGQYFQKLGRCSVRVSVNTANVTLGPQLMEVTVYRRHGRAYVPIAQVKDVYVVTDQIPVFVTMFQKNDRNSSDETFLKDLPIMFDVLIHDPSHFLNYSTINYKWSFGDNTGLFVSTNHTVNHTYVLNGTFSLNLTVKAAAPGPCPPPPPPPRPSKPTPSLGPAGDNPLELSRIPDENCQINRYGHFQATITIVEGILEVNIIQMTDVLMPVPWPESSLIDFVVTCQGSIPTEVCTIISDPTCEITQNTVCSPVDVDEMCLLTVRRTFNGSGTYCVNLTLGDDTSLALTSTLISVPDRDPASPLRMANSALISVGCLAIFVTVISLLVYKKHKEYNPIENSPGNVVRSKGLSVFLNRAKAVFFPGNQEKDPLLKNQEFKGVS
# Protocol: Before studying the interaction between SP and HGFIN, each protein was profiled by the Surface Enhanced Laser Desorption/Ionization (SELDI) ProteinChip Array technology (Ciphergen Biosystems Inc., Fremont, Calif.). Normal phase (NP1) arrays were used for profiling and preactivated surface arrays (PS1) for HGFIN-SP interaction. For profiling studies, 2 μg of purified HGFIN or 2 μg of SP were spotted directly onto the NP1 arrays. Prior to adding of the proteins, chips were pre-wet with PBS. Arrays were incubated at room temperature until the protein was absorbed, which took approximately 5 to 10 minutes. […] Chips were immediately analyzed using linear, time-lag focusing laser desorption/ionization SELDI-time-of-flight mass spectrometer (Model PBS II). Accurate mass was determined by collecting approximately 150 averaged laser shots. […]
# HGFIN-SP interaction was studied by pre-treating the PS1 chips with 50% acetonitrile for 3 minutes. […] CHCA was applied and the non-covalently bound SP was detected with the SELDI-Time of Flight Mass spectrometer as described for the profiling studies for HGFIN.
# Protein-protein interactions were performed with the PS1 protein chip since this chip was determined to covalently bind HGFIN. SP was added to the chip and then detected with the SELDI system.
# [2] = target: T2, Fibronectin-Fragment III-C (FN-IIIC) (Homo sapiens, UniProt P02751); test: SELDI ProteinChip (PS1) positive control, FN-IIIC and SP; format: binding; settings: FN-IIIC covalently coated
# T2 construct: 20 ng fibronectin, fragment III-C (positive control); purchased Sigma (St Louis, Mo.)
# Protocol: HGFIN-SP interaction was studied by pre-treating the PS1 chips with 50% acetonitrile for 3 minutes. After this, the chips were incubated for 45 minutes with the following: 2.5 μg HGFIN (experimental sample), anti-Id2, an unrelated IgG regarding its ability to complex with SP and was therefore treated as a negative control, rabbit anti-SP (positive control) or 20 ng fibronectin, fragment III-C (positive control). The arrays were blocked for 25 minutes with 1 M ethanolamine and washed with PBS+0.5% TRITON-X (2×) and a final PBS wash step. After this the chips were washed with PBS+TRITON-X, PBS, rinsed with 5 mM HEPES and then dried. CHCA was applied and the non-covalently bound SP was detected with the SELDI-Time of Flight Mass spectrometer as described for the profiling studies for HGFIN.
# Fibronectin has been reported to bind SP. Therefore, this property of fibronectin was used as a positive control for SP interaction on the SELDI system. […] Similar results were shown with another positive control: rabbit anti-SP (covalently bound) and SP. No peak was detected in two negative controls, which consisted of bovine serum albumin or an unrelated antibody (anti-Id2) covalently bound to the surface of PS1.
# T2 sequence (P02751 627-702 limits assumed): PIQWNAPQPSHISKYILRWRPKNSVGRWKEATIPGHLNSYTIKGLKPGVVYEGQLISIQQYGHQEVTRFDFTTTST
Compound,response of cancer stem cells to the drug [1],non-covalently bound SP detected on HGFIN-coated PS1 chip (SELDI) (HGFIN),SP detected on FN-IIIC-coated PS1 chip (SELDI) [2]
"O=c1[nH]cc(F)c(=O)[nH]1 [5-FU, 5-fluorouracil]",resistant,,
Substance P [SP],,single peak at ˜13000 Da,single peak at ˜13000 Da

# — patent US8383806B2, “Method of reversing carboplatin resistance by inhibition of HGFIN” (University of Medicine and Dentistry of New Jersey, priority 2000, dated 2013)
